Measurements: US7879571B2, “Population based assessments and means to rank the relative immunogenicity of proteins” (Danisco US Inc., priority 2003, dated 2011)
“Also recorded” adds a separate entry of the source.

How the values were obtained:
[1] = system: CD4+ T-cells; assay: I-MUNE assay: CD4+ T-cell proliferation with dendritic cells and 15-mer peptides offset by 3 amino acids, community donors; settings: for Background % / Structure Value / Response/Peptide: Table 3; for Response/Peptide: donors with SI>2.95 per peptide; for Background +/- sd / Responses/peptide found: Table 5
Experimental: Peptides were resuspended in DMSO at approximately 1 to 2 mg/ml, and stored at −70° C. prior to use. Each peptide was tested at least in duplicate, although for small peptide sets (e.g., Ber e 1), the peptides were routinely tested in triplicate.
Volunteer donor human blood buffy coat samples were obtained from two commercial sources (Stanford Blood Center, Palo Alto, Calif., and the Sacramento Medical Foundation, Sacramento, Calif.). Buffy coat samples were further purified by density separation. Each sample was HLA typed for HLA-DR and HLA-DQ using a commercial PCR-based kit (Bio-Synthesis).
Monocytes were purified by adherence to plastic in AIM V medium (Gibco/Life Technologies). Adherent cells were cultured in AIM V media containing 500 units/ml of recombinant human IL-4 (Endogen) and 800 units/ml recombinant human GM-CSF (Endogen) for 5 days. On day 5, recombinant human IL-1α (Endogen) and recombinant human TNF-α (Endogen) were added to 50 units/ml and 0.2 units/ml, respectively. On day 7, the fully matured dendritic cells were treated with 50 ug/ml mitomycin C (Sigma) for 1 hour at 37° C. Treated dendritic cells were dislodged with 50 mM EDTA in PBS, washed in AIM V medium, counted, and resuspended in AIM V media at 2×10^5 cells/ml.
CD4^+ T-cells were purified by negative selection from frozen aliquots of human peripheral blood mononuclear cells (PBMC) using Cellect CD4 columns (Cedarlane). CD4^+ T-cell populations were routinely >80% pure and >95% viable as judged by trypan blue (Sigma) exclusion. CD4^+ T-cells were resuspended in AIM V media at 2×10^6 cells per ml.
CD4^+ T-cells and dendritic cells were plated in round-bottomed 96 well format plates at 100 ul of each cell mix per well. Peptide was added to a final concentration of approximately 5 ug/ml in 0.25-0.5% DMSO. Control wells contained 0.5% DMSO without added peptide. Each peptide was tested in duplicate. Cultures were incubated at 37° C., in 5% CO2 for 5 days. On day 5, 0.5 uCi of tritiated thymidine (NEN DuPont,) was added to each well. On day 6, the cultures were harvested onto glass fiber mats using a TomTec manual harvester (TomTec), then processed for scintillation counting. Proliferation was assessed by determining the average counts per minute (CPM) value for each set of duplicate wells (TriLux Beta).
For each individual buffy coat sample, the average CPM values for all of the peptides were analyzed. The average CPM values for each peptide were divided by the average CPM value for the control (DMSO only) wells to determine the “stimulation index” (SI). Donors were tested with each peptide set until an average of at least two responses per peptide were compiled. The data for each protein was graphed showing the percent responders to each peptide within the set. A positive response was collated if the SI value was equal to or greater than 2.95. This value was chosen as it approximates a difference of three standard deviations in a normal population distribution. For each protein assessed, positive responses to individual peptides by individual donors were compiled. To determine the background response for a given protein, the percent responders for each peptide in the set were averaged and a standard deviation was calculated. SI values for each donor were compiled for each peptide set, and the percent of responders reported.

[2] = system: 18 different HLA-DR and -DQ proteins; assay: HLA class II peptide binding competition assay, panel of 18 alleles; set-up: species or system human; settings: good binders: IC50 less than 500 nM
Experimental: FIG. 17 provides a table showing the IC50 binding values for epitope peptides identified in bacterial proteases by the I-MUNE® assay system of the present invention. Values less than 500 nM are considered to be good binders and are highlighted in bold in the Table. Degeneracy indicates the number of HLA class II proteins that bind with an IC50 of less than 500 nM out of the 18 total alleles tested.
In addition to the above I-MUNE® assay, peptide binding assays were also performed. The peptide binding assay used during the development of the present invention is known in the art (Southwood et al., J. Immunol., 160:3363-3373 [1998]). Briefly, HLA-DR and -DQ molecules were purified from a panel of EBV transformed cell lines. A competition assay was performed with a characterized standard peptide, and the unknown peptide. The amount of unknown peptide required to compete 50% of the standard peptide binding was then determined (indicated as the IC50).
The IC50 for HLA class II protein binding was determined for peptide epitopes defined by the in two related industrial bacterial proteases (See, FIG. 17). The peptides were tested in a competition assay for binding to 18 different HLA-DR and -DQ proteins. […] This likely explains the association seen in the data for a response to this peptide with HLA-DR6(13) donors (p=0.00015; relative risk=7.22, n=113 donors tested). […]

[3] = system: PBMC; assay: Maximum proliferative response of PBMC from 30 community donors to inactivated whole protein; format: cell-based, human; settings: inactivated enzymes, 5 to 40 ug/ml, 30 donors; p<0.01; listed as protease variant
Experimental: FIG. 9 provides a graph showing the maximum proliferative responses of PBMC from 30 community donors to BPN′ Y217L (open triangles, structure value=0.53) and the […] BPN′ Y217L variant (closed squares, structure value=0.40). Each donor's maximum response is shown on the y-axis. An SI of 2.0 was the cut-off for a “positive” response. The difference in proliferative responses between BPN′ Y217L and the variant was p<0.01.
In these experiments, PMBC from thirty community donors were tested parametrically with either the whole protein parent enzyme (BPN′ Y217L) or the variant protease. The enzymes were inactivated, and tested over a dose range from 5 to 40 ug/ml. […] The difference between optimal SI values for the two proteins tested on these thirty donors was significant, with a two-tailed parametric t-test value of p<0.01.

## E7 16: HPV E7 protein, HPV strain 16
[1]
  Background %: 4.33%
  Structure Value: 0.66
  Response/Peptide: 3.9

## hTpo: human thrombopoietin, a cytokine whose expression is restricted to the bone marrow
[1]
  Structure value in words: comparatively high
  Background +/- sd: 2.54 +/− 2.23

## BPN' Y217L #24: 15-mer epitope peptide number 24 of BPN′ Y217L, first epitope (amino acids 70-84) (GTVAALNNSIGVLGV; UniProt P00782 177-191, looked up, fragment)
[2]
  HLA class II binding (in words): binds most HLA class II molecules tested

## BPN' Y217L#37: 15-mer epitope peptide number 37 of BPN′ Y217L, second epitope (amino acids 109-123) (NGIEWAIANNMDVIN; UniProt P00782 216-230, looked up, fragment)
[2]
  HLA class II binding (in words): promiscuous

## E7 18: HPV E7 protein, HPV strain 18
[1]
  Background %: 3.55%
  Structure Value: 0.44
  Response/Peptide: 3.19

## E6 18: human papillomavirus E6 protein, HPV strain 18
[1]
  Background response in words (compared with the 11 industrial enzymes): not significantly different
  Background %: 4.23%
  Structure Value: 0.79
  Response/Peptide: 2.32
  Background +/- sd: 4.23 +/− 4.25
  Responses/peptide found: 2.32

B1: ALCALASE ®: ALCALASE® enzyme, commercially available from Novo; Swissprot accession number P00780 (protein, UniProt P00780 106-379, looked up)
Subtilisin Carlsberg: AQTVPYGIPLIKADKVQAQGFKGANVKVAVLDTGIQASHPDLNVVGGASFVAGEAYNTDGNGHGTHVAGTVAALDNTTGVLGVAPSVSLYAVKVLNSSGSGSYSGIVSGIEWATTNGMDVINMSLGGASGSTAMKQAVDNAYAKGVVVVAAAGNSGSSGNTNTIGYPAKYDSVIAVGAVDSNSNRASFSSVGAELEVMAPGAGVYSTYPTNTYATLNGTSMASPHVAGAAALILSKHPNLSASQVRNRLSSTATYLGSSFYYGKGLINVEAAAQ
[1]; regions of the protein sequence
  Prominent responses (amino acids / peptide positions): 19-33

B2: E6 16: human papillomavirus E6 protein, HPV strain 16 (protein, UniProt P03126 1-158, looked up)
Protein E6: MHQKRTAMFQDPQERPRKLPQLCTELQTTIHDIILECVYCKQQLLRREVYDFAFRDLCIVYRDGNPYAVCDKCLKFYSKISEYRHYCYSLYGTTLEQQYNKPLCDLLIRCINCQKPLCPEEKQRHLDKKQRFHNIRGRWTGRCMSCCRSSRTRRETQL
[1]
  Background response in words (compared with the 11 industrial enzymes): significantly higher
  Background %: 7.12%
  Structure Value: 0.72
  Response/Peptide: 3.92
  Background +/- sd: 7.12 +/− 6.48
  Responses/peptide found: 3.92

B3: E7 33: HPV E7 protein, HPV strain 33 (protein, UniProt P06429 1-97, looked up)
Protein E7: MRGHKPTLKEYVLDLYPEPTDLYCYEQLSDSSDEDEGLDRPDGQAQPATADYYIVTCCHTCNTTVRLCVNSTASDLRTIQQLLMGTVNIVCPTCAQQ
[1]
  Background %: 4.32%
  Structure Value: 0.54
  Response/Peptide: 2.55

B4: E7 31: HPV E7 protein, HPV strain 31 (protein, UniProt P17387 1-98, looked up)
Protein E7: MRGETPTLQDYVLDLQPEATDLHCYEQLPDSSDEEDVIDSPAGQAEPDTSNYNIVTFCCQCKSTLRLCVQSTQVDIRILQELLMGSFGIVCPNCSTRL
[1]
  Background %: 5.26%
  Structure Value: 0.78
  Response/Peptide: 3.1

B5: E6 31: human papillomavirus E6 protein, HPV strain 31 (protein, UniProt P17386 1-149, looked up)
Protein E6: MFKNPAERPRKLHELSSALEIPYDELRLNCVYCKGQLTETEVLDFAFTDLTIVYRDDTPHGVCTKCLRFYSKVSEFRWYRYSVYGTTLEKLTNKGICDLLIRCITCQRPLCPEEKQRHLDKKKRFHNIGGRWTGRCIACWRRPRTETQV
[1]
  Background %: 4.66%
  Structure Value: 0.53
  Response/Peptide: 3.26

B6: E7 45: HPV E7 protein, HPV strain 45 (protein, UniProt P21736 1-106, looked up)
Protein E7: MHGPRETLQEIVLHLEPQNELDPVDLLCYEQLSESEEENDEADGVSHAQLPARRAEPQRHKILCVCCKCDGRIELTVESSAEDLRTLQQLFLSTLSFVCPWCATNQ
[1]
  Background %: 3.75%
  Structure Value: 0.76
  Response/Peptide: 2.44

B7: BPN′ variant: BPN′ Y217L variant where prominent responses to amino acids 70-84 and 109-123 were reduced to background level (protein, UniProt P00782 108-382, looked up, variant Y217L)
Subtilisin BPN': AQSVPYGVSQIKAPALHSQGYTGSNVKVAVIDSGIDSSHPDLKVAGGASMVPSETNPFQDNNSHGTHVAGTVAALNNSIGVLGVAPSASLYAVKVLGADGSGQYSWIINGIEWAIANNMDVINMSLGGPSGSAALKAAVDKAVASGVVVVAAAGNEGTSGSSSTVGYPGKYPSVIAVGAVDSSNQRASFSSVGPELDVMAPGVSIQSTLPGNKYGALNGTSMASPHVAGAAALILSKHPNWTNTQVRSSLENTTTKLGDSFYYGKGLINVQAAAQ
[1]; Table 4, number of prominent epitopes
  Prominent Epitope: 0
[1]; calculated from the 113-donor dataset with responses to 70-84 and 109-123 reduced to background levels
  Structure value of variant: 0.40
[3]
  Proliferation compared with the parent protein (in words): significantly less proliferation; also recorded: induced less proliferation

B8: sTNFR1: soluble tumor necrosis factor receptor 1, a soluble recombinant cytokine receptor molecule (protein, UniProt P19438 30-211, looked up)
extracellular domain: LVPHLGDREKRDSVCPQGKYIHPQNNSICCTKCHKGTYLYNDCPGPGQDTDCRECESGSFTASENHLRHCLSCSKCRKEMGQVEISSCTVDRDTVCGCRKNQYRHYWSENLFQCFNCSLCLNGTVHLSCQEKQNTVCTCHAGFFLRENECVSCSNCKKSLECTKLCLPQIENVKGTEDSGTT
modifications: extracellular domain
[1]
  Background +/- sd: 2.23 +/− 1.95

B9: E6 33: human papillomavirus E6 protein, HPV strain 33 (protein, UniProt P06427 1-149, looked up)
Protein E6: MFQDTEEKPRTLHDLCQALETTIHNIELQCVECKKPLQRSEVYDFAFADLTVVYREGNPFGICKLCLRFLSKISEYRHYNYSVYGNTLEQTVKKPLNEILIRCIICQRPLCPQEKKRHVDLNKRFHNISGRWAGRCAACWRSRRRETAL
[1]
  Background %: 2.83%
  Structure Value: 0.68
  Response/Peptide: 1.97
